Molecular target: T1, rat VEGF (in rat serum) (rat, UniProt P16612-2 27-190, limits assumed)
T1 construct: also called VEGF in rat serum samples
T1 sequence (looked up): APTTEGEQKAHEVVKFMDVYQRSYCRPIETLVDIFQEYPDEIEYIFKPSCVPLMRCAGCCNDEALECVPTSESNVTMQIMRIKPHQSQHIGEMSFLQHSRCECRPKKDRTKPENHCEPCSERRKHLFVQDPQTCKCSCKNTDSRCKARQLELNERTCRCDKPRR
Assay: Western blot, cell supernatant as primary antibody

B1: anti-VEGF Fab expressed by the MDR6 plasmid (culture supernatant of transfected cells) (Fab, V domains shown)
VH: EVQLVESGGGLVQPGGSLRLSCAASGYDFTHYGMNWVRQAPGKGLEWVGWINTYTGEPTYAADFKRRFTFSLDTSKSTAYLQMNSLRAEDTAVYYCAKYPYYYGTSHWYFDVWGQGTLVTVSS
VL: DIQLTQSPSSLSASVGDRVTITCSASQDISNYLNWYQQKPGKAPKVLIYFTSSLHSGVPSRFSGSGSGTDFTLTISSLQPEDFATYYCQQYSTVPWTFGQGTKVEIKR
notes: also called M6
  binding result: no binding (tested: 5 ug of rat serum)

From patent EP4368203A1 (Wuhan Neurophth Biotechnology Limited Company, dated 2024)
